Molecular target: T1, recombinant purified full-length AurA (His-AurA) (UniProt O14965 1-403)
T1 sequence (looked up): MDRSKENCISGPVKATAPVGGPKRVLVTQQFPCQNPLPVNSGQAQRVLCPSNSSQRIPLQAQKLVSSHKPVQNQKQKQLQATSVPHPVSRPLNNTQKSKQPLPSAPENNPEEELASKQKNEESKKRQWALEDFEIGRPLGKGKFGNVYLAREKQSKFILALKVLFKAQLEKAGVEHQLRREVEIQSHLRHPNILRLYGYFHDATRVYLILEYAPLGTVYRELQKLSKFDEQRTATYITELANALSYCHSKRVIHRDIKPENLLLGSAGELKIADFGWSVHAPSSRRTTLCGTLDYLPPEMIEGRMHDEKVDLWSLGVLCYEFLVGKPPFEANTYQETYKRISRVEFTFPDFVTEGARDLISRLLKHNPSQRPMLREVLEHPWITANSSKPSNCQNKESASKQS
Experiment: pull-down

- binding result: binds
B1: GST fused to aa 779-968 of the PC2 C terminus (domain or fragment, human, UniProt Q13563 779-968, looked up)
chain: RDDLEKEREDLDLDHSSLPRPMSSRSFPRSLDDSEEDDDEDSGHSSRRRGSISSGVSYEEFQVLVRRVDRMEHSIGSIVSKIDAVIVKLEIMERAKLKRREVLGRLLDGVAEDERLGRDSEIHREQMERLVREELERWESDDAASQISHGLGTPVGLNGQPRPRSSRPSSSQSTEGMEGAGGNGSSNVHV
